Test results taken from US20220144922A1 (Adimab, published 2022).
Changes are numbered by the printed parent chain.

B1: ADI-15595 (antibody, V domains shown)
VH: EVQLVESGPTLVKPTQTLTLTCTFSGFSLTTIGVGVGWIRQPPGKALEFLGIVYWDDDKRYSPSLKSRLTITKDTSKNQVVLTMTTLAPEDTGTYYCTYARYSSALFGGYYFHSWGQGTLVTVSS
VL: QSVLTQPPSVSVAPGQTAKITCGGNDIGSRSVHWYQQKPGQAPVLVVYDNSDRPSGIPERFSGSNSGDTATLTISRVEAGDEAVYYCQVWESSGDHPRIFGGGTKLTVL
B2: ADI-15607 (antibody, V domains shown)
VH: QVQLVQSGGGLVQPGGSLRLSCAASRFTFSSYAMSWVRQAPGKGLEWVSTISGSGISTYYADSVKGRFTISRDNSKNTLYLQMNSLSAEDTAVYYCAKELREYYYDSSGFDYWGQGTLVTVSS
VL: QPVLTQSRSVSGSPEQSVTISCTGTSSDVGGYNYVSWYQQHPGKAPKLMIYDVSKRPSGVPDRFSGSKSGNTASLTISGLQAEDESDYYCCSYAGTYTYVFGTGTKVTVL
B3: ADI-15555 (antibody, V domains shown)
VH: EVQLVESGGALVKPGGSLRLSCVGTGLTFTTAYMSWARQAPGKGLEWVGRIKSKSDGGTTDYPTPVKGRFTISRDESKNTLYLQMNSLKIEDTAVYYCTTDRGITARPIFDSWGQGTLVTVSS
VL: QSVLTQPPSVSGALGRRVTISCTGSSSNIGAGYDVHWYRQLPGTAPKLLIYGNTKRPSGVPDRFSGSKYATSASLAITGLQAEDDADYYCQSYDGGLSGYVFGTGTKLTVL
B4: ADI-15618 (antibody, V domains shown)
VH: EVQLVETGGGLIQPGGSLRLSCVASGFSLRNYALGWLRQAPGKGLEWVSGGYYGDVYYTDSVKGRFAVSRDNSGDTVYLEMDNLRVEDTAVYYCARMETVTTDAGSGWDWYFEVWGRGTLVTVSS
VL: ETTLTQSPATLSLSPGDWATLSCRASQSVGTYLAWYQHKPGQAPRLLIHDASNRASDIPSRFSGSGSGTDFTLTIRGLEPEDFAVYYCQQHRDWRPVTFGGGTKVEIK
notes: IgG
B5: ADI-15557 (antibody, V domains shown)
VH: QVQLVQSGAEVKRPGSSVKVSCKASGGTFSSFAINWVRQAPGQGLEWMGGLIPIFGTPNNAQKFQGRVTITADESTSTAYMELSSLRSEDTAVYYCASLRYFDWQPGGSYWFDPWGQGTLVTVSS
VL: QPGLTQPPSVSVAPGKTARIACGGDNIGTKGVHWYQQKPGQAPVLVIYYDSDRPSGIPERFSGSNSGNTATLTISGVEAGDEADYYCQVWDTIDDHKDGLFGGGTKLTVL
notes: IgG
B6: ADI-15661 (antibody, V domains shown)
VH: EVQLVESGGGVVQPGRSLRLSCEASGFNFHNYDIQWVRQAPGKGLEWVALVLFDGSKKYYPHSVKGRFAISRDNSKKTLFLQMNSLRPEDTAVYYCARAPVTGASYYLDYWGQGTLVTVSS
VL: SYVLTQPPSVSVAPGQTARITCGANNIGNKGVHWYQQKPGQAPVLVVYDDDDQPSGIPERFSGSNSGNTATLTISRVEAGDEADYYCQVWDSTSDHLVFGGGTQLTVL
B7: ADI-15562 (antibody, V domains shown)
VH: QVQLVQSGAEVKKPGDSLKISCKNAGHTSRIYWIAWVRQMPAKGLEYMGIIFPGDSDTRYSPSFRGQVTISADRSIRTAYLQLSSLKASDTGIYYCATQGLEGAFDYWGQGTLVTVSS
VL: DIRLTQSPSSLSASVGDRVTITCQASQDISNQLNWYQQKPGTAPKLLIYDASFLQTGVPSRFSGSGSGTHFTFTITSLQPEDFATYFCQHYDSFPIFTFGPGTKLEIK
B8: ADI-15589 (antibody, V domains shown)
VH: QVQLQQWGAGLLKPSETLSLTCAVYGGSFSGYYWGWIRQPPGKGLEWIGEVNHSGTSNYNPSLTSRVTISVDPSKKQLSLKLNSVTAADTAVYYCARAPWYTHAMDVWGQGTTVTVSS
VL: QSVLTQPASVSGSPGQSITISCTRTSSDVGAYSYVSWYQQHPGKAPKLMIYDVNNRPSGVSNRFSGSKSGNTASLTISGLQAEDEADYYCSSYTNSNTLGVFGGGTKLTVL
B9: ADI-15590 (antibody, V domains shown)
VH: EVQLLESGGLVVQPGGSLRLSCAASGFIFDDYTMHWVRQAPGKGLEWISLISWDSLDTYYAGSVQGRFTISRDNSRNSLYLRMNSLRPEDTALYYCAKTKYRGTYYYFDSWGQGTLVTVSS
VL: DIRVTQSPSSLSASVGDRVTITCQASQDISNYLNWYQQKPGKAPKLLIYDASNLETGVPSRFSGRGSGTDFTFTISSLQPEDIATYYCQQYDNLPPVTFGPGTKVEIK
B10: ADI-15581 (antibody, V domains shown)
VH: QVQLVQSGAEVKKPGSSMKVSCQASGGPFSTYTISWVRQAPGQGLEWMGGIIPVFGTPNYAQKFHGRVTITADQSTSTAYMELSSLRSEDTAVYYCAGAPYPMDVWGQGTTVTVSS
VL: EIVLTQSPATLSLSPGERATLSCRASQSVASSLAWYQQKPGQAPRLLIYDASNRATGIPARFSGSGSGTDFTLTISSLEPEDFAVYYCQQRTNWQGLSFGGGTKVDIK
B11: ADI-15613 (antibody, V domains shown)
VH: EVQLVESGAEVKKPGSSVKVSCKVSGGTFSTYGISWIQQAPGQGLEWVGGIIPMFGTANYAQRFQGRVTLTADEGTNTAYMELNNLRSEDTAMYYCARDRGNNGRYYAMDVWGQGTTVTVSS
VL: DIVLTQTPATLSLSPGERATLSCRASQSVTTYLAWYQQKPGQAPRLLIYDTSNRATGIPARFSGSGSGTDFTLTISSLEPEDFAVYYCQQRNNWPPTFGQGTRLEIK
B12: ADI-15579 (antibody, V domains shown)
VH: EVQLVESGGGLVQPGRSLRLSCAAFGFTFDDYAMHWVRQAPGKGLEWVSGISWNSGFIGYADSVKGRFTISRDNAKNSLSLQMNSLRTEDTALYYCAKTDGAVAVDGPFDYWGQGTLVTVSS
VL: EIVLTQSPSSLSASVGDRVTITCRASQSISGYLSWYQQKPGKAPKLLIHSTSSLQSGVPSRFSGSGSGTDFTLTITSLQPEDFATYYCQQSYIAPPTFGQGTKVEIK
B13: ADI-15636 (antibody, V domains shown)
VH: EVQLVESGAEVKKPGSSVKVSCKASADTFSSYAISWVRQAPGQGLEWMGGILPILGTANSAQKFRGRVTFTADESTTTAYMELSSLRSEDTAVYYCARLAGPRWPGYGMDVWGQGTLVTVSS
VL: DIQLTQSPSFLSASVGDRVTITCRASQGISSYLAWYQQKPGKAPKLLIYAASTLQSGVPSRFSGSGSGTEFTLTISSLQPEDFATYYCQQLNSFPLTFGGGTKVEIK
B14: ADI-15572 (antibody, V domains shown)
VH: QVQLVQSGAEAKKPGASVKVSCKASGYTFTSYYLHWVRQAPGQGPEWMGIINPGGGSTELSQKFQGRVTLTRDTSTSTVYMEVTSLTSEDTAVYYCARARIQLWAPNYYGMDVWGQGTTVTVSS
VL: B13 VL with Q27H, S30T, K42N, G68E, E70Q, S77G, S93R, F94Y, G100Q
B15: ADI-15634 (antibody, V domains shown)
VH: QVQLVQSGAEVKKPGSSVKVSCKASGGTFSSYAISWVRQAPGQGLEWMGGIIPIFGTVNYAQKFQGRVTITADESTSTAYMELSSLRSEDTAVYYCARDRSVTPRYYGMDVWGQGTTVTVSS
VL: EIVMTQSPATLSLSPGERATLSCRASQSVSSYLAWYQQKPGQAPRLLIYDASNRATGIPARFSGSGSGTDFTLTISSLEPEDFAVYYCQHRSNWPPLTFGPGTKLEIK
B16: ADI-15664 (antibody, V domains shown)
VH: EVQLVESGAEVKKPGSSVKVSCKASGGTFSSYAISWVRQAPGQGLEWMGGTIPIFGTINYAQKFQGRLTINADASTSTAYMELSSLRSEDTAVYFCARDRTTAVRYYAMDVWGQGTTVTVSS
VL: B15 VL with M4L, A51T, G57D, S92A, P101G, L105V
B17: ADI-15570 (antibody, V domains shown)
VH: QVQLVESGGGVVQPGKSLRLSCAASGFTFSSYPMHWVRQAPGAGLEWMAVISYDGANKYYEDSLKGRFTISRDNSKDTLFLQMNNLRPEDTAVYYCARGRTSHINTPETKWGQGTLVTVSS
VL: EIVLTQSPTLVSASTGDTVTISCRMSQGINGYLAWFQKKPGKAPDLLIYGASTLQDGVPSRFSGSGSGTDFTLTISRLQSEDLATYYCQQYYSLPWTFGQGTKVDIK
B18: ADI-15630 (antibody, V domains shown)
VH: QVQLVQSGGGLVKPGGSLRLSCAASGFIFSDYYMVWIRQAPGKGLEWVSYISSSSRYINYADSVKGRFTISRDNAKNSLFLQMNTVRAEDTAVYYCAQGWYSDFWSGPIRIWGQGTLVTVSS
VL: DIQLTQSPSSLSASVGDRVTITCQASQDISNSLNWFQQKPGKAPKLLIFDAYNLETGVPSRFSGSGSGTDFTLTISSLQPEDIATYYCQQNDNLVLTFGGGTKLEIK
B19: ADI-15558 (antibody, V domains shown)
VH: QVQLVQSGGEVKKPGASVKVSCKASGYTFTTYGISWVRQAPGHGLEWLGWISPKNGNTKYAQKVQGRVTMTIDPTTSTAYMELRSLRSDDTAMYYCARDYIVAIVAALPHGMDVWGQGTLVTVSS
VL: QSVLTQPPSLSVSPGQTASISCSGDQLGNKYVCWYQQKPGQSPVLVIYQDSRRPSGVPERFSGSNSGNTATLTVGGTQPMDEADYYCQAWDSSIRVFGGGTKVTVL
notes: IgG

Target: RSV F protein of subtype A strain A2, on virus (respiratory syncytial virus subtype A …, UniProt P03420 26-574)
Experiment: cell-based or functional assay

| Binder | Neut IC50 (ug/ml) subtype A [µg/mL] |
| --- | --- |
| B1 | 0.02 |
| B2 | > 10 |
| B3 | 2.19 |
| B4 | 0.003 |
| B5 | 0.041 |
| B6 | 0.021 |
| B7 | 0.01 |
| B8 | 0.876 |
| B9 | > 10 |
| B10 | 8.25 |
| B11 | 0.862 |
| B12 | 8.02 |
| B13 | > 10 |
| B14 | 9.48 |
| B15 | > 10 |
| B16 | > 10 |
| B17 | 13.3 |
| B18 | > 10 |

Target: RSV F protein of subtype B strain 18537, on virus (respiratory syncytial virus subtype B …, UniProt P13843 26-574)
Experiment: cell-based or functional assay

| Binder | Neut IC50 (ug/ml) subtype B [µg/mL] |
| --- | --- |
| B1 | 0.17 |
| B2 | > 10 |
| B3 | 2.45 |
| B5 | 0.028 |
| B6 | > 10 |
| B8 | 18.5 |
| B9 | > 10 |
| B10 | 6.12 |
| B11 | 3.04 |
| B12 | > 10 |
| B13 | 6.44 |
| B14 | 6.25 |
| B15 | > 10 |
| B16 | > 10 |
| B17 | > 10 |
| B18 | 6.64 |

Target: T1, prefusion-stabilized RSV F ectodomain (DS-Cav1), subtype B (respiratory syncytial virus subtype B)
T1 construct: extracellular domain; also called Prefusion subtype B
Experiment: BLI, IgG on sensor
Description: IgG binding to DS-Cav1 and FA FP was determined by BLI measurements using a FortéBio Octet HTX instrument (Pall Life Sciences). […] Data was analyzed using the ForteBio Data Analysis Software 7. The data was fit to a 1:1 binding model to calculate an association and dissociation rate, and KD was calculated using the ratio kd/kₐ.

| Binder | Kd [nM] |
| --- | --- |
| B19 | 0.94 |
| B4 | 0.535 |
| B5 | 0.61 |
